Here are results for four molecules from article PMC9888390, “A non-neutralizing glycoprotein B monoclonal antibody protects against herpes simplex virus disease in mice” (The Journal of Clinical Investigation, 2023).

Test [1] concerns the target glycoprotein B of HSV-2(G), from infected HaCaT cells (Human herpesvirus 2, strain G, UniProt A0A0D4CHI5, strain). Put plainly: affinity purification with mass spectrometry; RIPA lysate of HSV-2(G)-infected HaCaT cells incubated overnight at 4°C with 1 mg/mL mAb; Protein A resin; elution with glycine-HCl pH 2.5-3.0; SDS-PAGE, in-gel trypsin digestion, nano-LC-MS/MS. As to conditions: one partner purified.

Test [2] has as its target T1, Recombinant HSV-1 glycoprotein B, soluble ectodomain (Human herpesvirus 1, strain  …, UniProt P06437).
T1 construct: glycoprotein B of herpes simplex virus 1, soluble ectodomain, postfusion state; The printed limits 31-70 are perhaps a misprint of 31-730 (surmised). 'epo' in the name is perhaps a foreign signal peptide (surmised); also called gB; gB-1; not shown: His tag, C-terminal, kept
Put plainly: Luminex bead binding assay; HSV-1 gB coupled to carboxylated beads; rAbs serially diluted from 2 μg/mL (3-fold, 11 dilutions) in PBS with 1% BSA, 0.05% NaN3, 0.05% Tween-20 and 1% milk, 2 hours; detected with PE-conjugated goat anti-mouse IgG. Conditions: both partners purified.

Test [3] has as its target T2, glycoprotein B of HSV-2(4674), from infected Vero cells (Human herpesvirus 2, clinical isolate …, UniProt P08666, strain).
T2 construct: glycoprotein B of herpes simplex virus 2, clinical isolate 4674, as made in infected cells; Seen as a band of about 100 kDa or about 116 kDa on a reducing gel; also called gB; monomeric gB; source: Vero cells infected with HSV-2(4674), in lysate
Kind of test: Western blot; HSV-2(4674)-infected or uninfected Vero cell lysates (10 μg per lane) separated by PAGE with β-mercaptoethanol, blotted and probed with BMPC-23 (10 μg/mL) overnight; anti-mouse IgG-HRP. Conditions: one partner purified.

The target of test [4] is T1, Recombinant HSV-1 glycoprotein B, …. Put plainly: BLI; OctetRed96; gB (C-terminal His tag) captured on anti-His (HIS2) biosensors at 1 ng/μL, dipped into increasing concentrations of BMPC-23 Fab; 1:1 binding model; apparent KD derived from on and off rates. As to conditions: both partners purified. For orientation: In BLI a coated tip is dipped into the sample, and binding shifts an interference pattern.

Test [5] shares this target. Put plainly: cryo-EM structure; gB 2.5 mg/mL with a 2-fold molar excess of Fab (3 mg/mL), 0.08% n-octyl-β-D-glucoside; Titan Krios 300 keV, K3 detector; gB in the postfusion state. Conditions: both partners purified.

B1: BMPC-23 recombinant mouse IgG (antibody, V domains shown)
VH: QVQLQQSGPELVKPGASVKLSCKASGYSFTTYDINWVKERPGQGLEWIGWIYPREGSTNYNEKFRGKATLTADTSSSTAYMELHSLTSEDSAVYFCATYGSSRYYTMDYWGQGTSVTVSS
VL: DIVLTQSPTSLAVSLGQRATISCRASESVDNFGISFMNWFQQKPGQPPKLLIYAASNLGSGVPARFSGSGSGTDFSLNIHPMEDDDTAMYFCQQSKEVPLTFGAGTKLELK
notes: VH of BMPC-23 (bone marrow plasmacyte of a ΔgD-2-vaccinated C57BL/6 mouse); mouse IgG1 or IgG2c constant region from the expression vector; VL of BMPC-23; Cloned into both mouse IgG1 and IgG2c vectors; also called BMPC-23 (IgG2c); mIgG2c BMPC-23; source: Expi293F, transient transfection, purified from culture supernatant (protein G spin columns); copies: 2 + 2
As for B1, the binding result in test [1], in test [2] and in test [3] was “binds” in each case.

B2: BMPC-23 Fab (Fab, V domains shown)
VH: B1 VH
VL: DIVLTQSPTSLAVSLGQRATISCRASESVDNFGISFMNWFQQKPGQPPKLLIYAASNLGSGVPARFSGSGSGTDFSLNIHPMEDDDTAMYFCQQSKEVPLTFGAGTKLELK
notes: as the heavy chain of m1 up to the papain cut; as the light chain of m1; also called Fab of BMPC-23; Fab portion of BMPC-23; source: from intact BMPC-23 (Expi293F) by cleavage with immobilized papain; purified by subtractive protein A chromatography
As for B2, in test [4], the Kd stood at 10 nM.

B3: HSV010-13 recombinant mouse IgG (antibody, V domains shown)
VH: QVQLQQPGAELVKPGASVKLSCKASGYTFTSYWIHWVKQGPGQGLEWIGMIHPNSGITHYNEKFKTKATLTVDKSSSTAYMQLSSLTSEDSAVCYCARGSSSGSAWFAYWGQGTLVTVSA
VL: DIQMTQSSSYLSESLGGRVTITCKASDHINNWLAWYQQKPGNAPRLLISGATSLETGVPSRFSGSGSGKDYTLSITSLQTEDVATYYCQQYWSSPLTFGAGTKLELK
notes: VH of HSV010-13 (germinal center B cell of a ΔgD-2-vaccinated C57BL/6 mouse); VL of HSV010-13; Member of a clonal lineage of five (HSV010-6, -9, -13, -14, -15); source: Expi293F, transient transfection, purified from culture supernatant (protein G spin columns); copies: 2 + 2
Take B3: the binding result in test [2] was “binds”.

B4: HSV010-13 Fab (Fab, V domains shown)
VH: B3 VH
VL: B3 VL
notes: Fab part of the heavy chain of m5; as the light chain of m5; The methods tell how the Fab was made only for BMPC-23; also called Fab fragment of HSV010-13
As for B4, the binding result in test [5] is on record as “binds”.
